{"source": "patent US20240166729A1", "key": {"mAb-EspB-B7 [1]": {"molecular_target": "mAb-EspB-B7"}, "mAb-EspB-B7 [2]": {"molecular_target": "mAb-EspB-B7", "remark": "listed apart in the source"}, "[3]": {"molecular_target": "Peptide #50 (enteropathogenic E. coli (EPEC))"}, "[4]": {"molecular_target": "Peptide #49 + 50 (enteropathogenic E. coli (EPEC))"}, "[5]": {"molecular_target": "Peptide #49 (enteropathogenic E. coli (EPEC))"}}, "note": "Like-named read-outs stand apart in the source and are kept apart here.", "data": [{"binder": "CTSAQKASQVAEEAADAAQEC (modifications not checked)", "note": "[Peptide #49 + 50]", "values": [{"measurement": "IC50 (read off the curve)", "setting": "mAb-EspB-B7 [1]", "result": 2, "unit": "µg/mL"}]}, {"binder": "CTSAQKASQVAEEAADC (modifications not checked)", "note": "[Peptide #49]", "values": [{"measurement": "IC50 (read off the curve)", "setting": "mAb-EspB-B7 [2]", "result": 0.8, "unit": "µg/mL"}]}, {"binder": "mAb-EspB-B7 (antibody, V domains shown) VH: EVQLLESGGGLVQPGGSLRLSCAASGFTFSHYAMNWVRQAPGKGLEWVSAINSNGDSTYYPDTVKDRFTISRDNSKNTLYLQMNSLRAEDTAVYYCARDRRAGYFDYWGQGTLVTVSS VL: DIVLTQPPSASGTPGQRVTISCSGSRDNIGKNYVSWYQQLPGTAPKLLIYRNNQRPSGVPDRFSGSKSGTSASLAISGLRSEDEADYYCSAWDTSLNAYVFGPGTQLTVL", "values": [{"measurement": "EC50 (read off the curve)", "setting": "[3]", "result": 0.4, "unit": "µg/mL"}, {"measurement": "EC50 (read off the curve)", "setting": "[4]", "result": 0.3, "unit": "µg/mL"}, {"measurement": "EC50 (read off the curve)", "setting": "[5]", "result": 0.5, "unit": "µg/mL"}]}]}
